The source of these data is patent publication US20120122991A1, “METHOD FOR TREATING CANCER BY INCREASING AMP-ACTIVATED KINASE ACTIVITY” (Dana-Farber Cancer Institute, Inc., priority 2003, published 2012).

First the molecules themselves.
B1: wild-type LKB1: Flag-tagged wild-type LKB1 serine/threonine kinase immunoprecipitated from HT1080 cells (protein)
chain: MEVVDPQQLGMFTEGELMSVGMDTFIHRIDSTEVIYQPRRKRAKLIGKYLMGDLLGEGSYGKVKEVLDSETLCRRAVKILKKKKLRRIPNGEANVKKEIQLLRRLRHKNVIQLVDVLYNEEKQKMYMVMEYCVCGMQEMLDSVPEKRFPVCQAHGYFCQLIDGLEYLHSQGIVHKDIKPGNLLLTTGGTLKISDLGVAEALHPFAADDTCRTSQGSPAFQPPEIANGLDTFSGFKVDIWSAGVTLYNITTGLYPFEGDNIYKLFENIGKGSYAIPGDCGPPLSDLLKGMLEYEPAKRFSIRQIRQHSWFRKKHPPAEAPVPIPPSPDTKDRWRSMTVVPYLEDLHGADEDEDLFDIEDDIIYTQDFTVPGQVPEEEASHNGQRRGLPKAVCMNGTEAAQLSTKSRAEGRAPNPARKACSASSKIRRLSACKQQ
modifications: left off: small tags and cut ends
notes: Flag-tagged wild-type LKB1 serine/threonine kinase immunoprecipitated from HT1080 cells
B2: STRAD-activated LKB1: wild-type LKB1 co-expressed with its coactivating protein STRAD, immunoprecipitated (protein)
chain 1: MEVVDPQQLGMFTEGELMSVGMDTFIHRIDSTEVIYQPRRKRAKLIGKYLMGDLLGEGSYGKVKEVLDSETLCRRAVKILKKKKLRRIPNGEANVKKEIQLLRRLRHKNVIQLVDVLYNEEKQKMYMVMEYCVCGMQEMLDSVPEKRFPVCQAHGYFCQLIDGLEYLHSQGIVHKDIKPGNLLLTTGGTLKISDLGVAEALHPFAADDTCRTSQGSPAFQPPEIANGLDTFSGFKVDIWSAGVTLYNITTGLYPFEGDNIYKLFENIGKGSYAIPGDCGPPLSDLLKGMLEYEPAKRFSIRQIRQHSWFRKKHPPAEAPVPIPPSPDTKDRWRSMTVVPYLEDLHGADEDEDLFDIEDDIIYTQDFTVPGQVPEEEASHNGQRRGLPKAVCMNGTEAAQLSTKSRAEGRAPNPARKACSASSKIRRLSACKQQ
chain 2: MSFLVSKPERIRRWVSEKFIVEGLRDLELFGEQPPGDTRRKTNDASSESIASFSKQEVMSSFLPEGGCYELLTVIGKGFEDLMTVNLARYKPTGEYVTVRRINLEACSNEMVTFLQGELHVSKLFNHPNIVPYRATFIADNELWVVTSFMAYGSAKDLICTHFMDGMNELAIAYILQGVLKALDYIHHMGYVHRSVKASHILISVDGKVYLSGLRSNLSMISHGQRQRVVHDFPKYSVKVLPWLSPEVLQQNLQGYDAKSDIYSVGITACELANGHVPFKDMPATQMLLEKLNGTVPCLLDTSTIPAEELTMSPSRSVANSGLSDSLTTSTPRPSNGDSPSHPYHRTFSPHFHHFVEQCLQRNPDARPSASTLLNHSFFKQIKRRASEALPELLRPVTPITNFEGSQSQDHSGIFGLVTNLEELEVDDWEF
modifications: left off: small tags and cut ends
B3: Kinase-inactive LKB1: kinase-dead LKB1 mutant, alone or coexpressed with STRAD (protein)
chain: MEVVDPQQLGMFTEGELMSVGMDTFIHRIDSTEVIYQPRRKRAKLIGKYLMGDLLGEGSYGKVKEVLDSETLCRRAVIILKKKKLRRIPNGEANVKKEIQLLRRLRHKNVIQLVDVLYNEEKQKMYMVMEYCVCGMQEMLDSVPEKRFPVCQAHGYFCQLIDGLEYLHSQGIVHKDIKPGNLLLTTGGTLKISDLGVAEALHPFAADDTCRTSQGSPAFQPPEIANGLDTFSGFKVDIWSAGVTLYNITTGLYPFEGDNIYKLFENIGKGSYAIPGDCGPPLSDLLKGMLEYEPAKRFSIRQIRQHSWFRKKHPPAEAPVPIPPSPDTKDRWRSMTVVPYLEDLHGADEDEDLFDIEDDIIYTQDFTVPGQVPEEEASHNGQRRGLPKAVCMNGTEAAQLSTKSRAEGRAPNPARKACSASSKIRRLSACKQQ
modifications: left off: small tags and cut ends
notes: kinase-dead LKB1 mutant, alone or coexpressed with STRAD

The target in the data set is T1, MBP-AMPK (Rattus norvegicus, UniProt P54645).
T1 construct: MBP-AMPKa (1-312) bacterial fusion protein
T1 sequence (P54645 13-323): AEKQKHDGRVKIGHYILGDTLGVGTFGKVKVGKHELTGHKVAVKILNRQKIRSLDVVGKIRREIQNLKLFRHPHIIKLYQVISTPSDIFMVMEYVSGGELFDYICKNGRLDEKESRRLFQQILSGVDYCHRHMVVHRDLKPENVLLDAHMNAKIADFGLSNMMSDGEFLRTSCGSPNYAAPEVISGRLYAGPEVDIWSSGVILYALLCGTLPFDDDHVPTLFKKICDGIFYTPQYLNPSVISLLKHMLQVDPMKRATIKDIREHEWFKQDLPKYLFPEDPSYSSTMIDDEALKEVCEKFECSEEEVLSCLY
Kind of data set: AMPK kinase activity on SAMS peptide after in vitro phosphorylation by LKB1. It counts as biochemical. Conditions: in vitro phosphorylation of bacterial MBP-AMPK, SAMS peptide substrate. The method, then: FIG. 2a: Lineup of known LKB1 in vitro phosphorylation sites with sites of phosphorylation in human […] and its yeast homologue SNF1p. AMPKα1 Thr 172 (SEQ ID NO:1); SNF1p S.c. Thr 210 (SEQ ID NO:2); STRAD Thr 329 (SEQ ID NO:3); STRAD Thr 419 (SEQ ID NO:4); LKB1 auto Thr 185 (SEQ ID NO:5). FIG. 2b. HT1080 cells were transfected with wild-type or kinase dead (K78I) LKB1 with or without its coactivating protein STRAD. As indicated, LKB1 immunoprecipitations (IPs) were tested for their ability to transphosphorylate bacterial MBP-AMPKα in an in vitro kinase assay. Parallel in vitro kinase assays were performed using ^32P γ-ATP followed by autoradiography or cold ATP followed by immunoblotting for phospho-Thr172 AMPK and the indicated proteins. Wild-type LKB1 IPs were run in duplicate as shown. MBP-AMPK was also tested alone as indicated. Results are typical of 3 separate experiments. FIG. 2c: LKB1 phosphorylation of MBP-AMPK activates its kinase activity towards a peptide substrate (SAMS). LKB1 immunoprecipitates (as in FIG. 2a) were used to phosphorylate MBP-AMPK in vitro and then MBP-AMPK was removed and tested for its ability to trans-phosphorylate the SAMS peptide in the presence of ^32P γ-ATP. Results were performed in two separate experiments in triplicate. LKB1 alone was incapable of detectably phosphorylating the SAMS peptide, and equivalent levels of LKB1 and MBP-AMPK were used in each reaction (data not shown). Samples without LKB1, without SAMS peptide, or without MBP-AMPK all gave similar levels of background (data not shown).
Kinase Assays and Cellular Analysis: AMPK kinase activity was measured using the SAMS peptide as previously described (7). LKB1 phosphorylation of AMPK was carried out in kinase buffer (50 mM Tris pH 7.5, 10 mM MgCl2, 1 mM DTT, 100 μM ATP) for 20 mins at 30° C. For immunopreciptations of active LKB1 kinase, Flag-tagged LKB1 was co-transfected with an equimolar amount of STRAD expression plasmid into HT1080 cells and immunoprecipitated using M2-agarose (Sigma) 24 h post-transfection in NP40 lysis buffer26. […]
As to B1, the “induced AMPK kinase activity” value is 27 fold.

Take B2: the “induced AMPK kinase activity” value stood at 50 fold.

As to B3, the “induced AMPK kinase activity” value is “unable to activate AMPK”.
